Where “and” joins values, the source holds several entries; their conditions need not be identical. Equal entries are not always repeated.

Assay [1] addresses T1, human isoleucine zipper-CD40L (IZ-hCD40L) (human, UniProt P29965 113-261).
T1 sequence: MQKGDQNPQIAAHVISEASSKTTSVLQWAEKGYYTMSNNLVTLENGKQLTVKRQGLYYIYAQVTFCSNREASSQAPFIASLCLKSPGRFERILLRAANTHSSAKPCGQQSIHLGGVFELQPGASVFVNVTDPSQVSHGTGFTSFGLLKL
The assay is described as follows: cell-based or functional assay.

Assay [2] concerns the target T2, human CD40L, membrane-bound on cells (human, UniProt P29965 1-261).
T2 sequence: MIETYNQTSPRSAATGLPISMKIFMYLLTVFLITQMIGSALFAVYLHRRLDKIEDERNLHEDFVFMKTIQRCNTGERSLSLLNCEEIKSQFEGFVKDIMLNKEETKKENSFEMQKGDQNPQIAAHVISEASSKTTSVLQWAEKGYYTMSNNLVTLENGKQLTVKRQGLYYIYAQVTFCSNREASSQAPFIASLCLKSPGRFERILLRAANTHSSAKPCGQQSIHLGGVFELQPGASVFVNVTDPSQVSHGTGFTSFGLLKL
In words: cell-based or functional assay.

B1: BMS2h-572-604 (other)
VH: EVQLLESGGGLVQPGGSLRLSCAASGFTFKWQLMGWVRQAPGKGLEWVSGIEGPGDVTYYADSVKGRFTISRDNSKNTLYLQMNSLRAEDTAVYYCVKVGKESNSDYRGQGTLVTVSS
Consider B1, for which the “hIZCD40L-driven Human B Cell Proliferation EC50” value in assay [1] was 254 nM and 354 nM. In assay [2], the “CHO-hCD40L-driven DC Activation IL-12 EC50” value worked out at 387 nM and the “CHO-hCD40L-driven Human B Cell Proliferation EC50” value is more than 700 nM.

B2: BMS2h-572-614 (other)
VH: EVQLLESGGGLVQPGGSLRLSCAASGFTFNWQLMGWVRQAPGKGLEWVSGIEGPGDVTYYADSVKGRFTISRDNSKNTLYLQMNSLRAEDTAVYYCVKVGKDAKSDYRGQGTLVTVSS
Turning to B2, in assay [1], the “hIZCD40L-driven Human B Cell Proliferation EC50” value amounted to 93 nM. In assay [2], the “CHO-hCD40L-driven DC Activation IL-12 EC50” value was found to be 135 nM and the “T-B cell MLR EC50” value was more than 7000 nM.

B3: BMS2h-572-619 (other)
VH: EVQLLESGGGLVQPGGSLRLSCAASGFTFNWQLMGWVRQAPGKGLEWVSGIEGPGDVTYYADSVKGRFTISRDNSKNTLYLQMNSLRAEDTAVYYCVKVGKDSRSDYRGQGTLVTVSS
In the case of B3, the “hIZCD40L-driven Human B Cell Proliferation EC50” value in assay [1] turned out to be 90 nM. In assay [2], the “CHO-hCD40L-driven DC Activation IL-12 EC50” value stood at 188 nM and the “T-B cell MLR EC50” value was more than 7000 nM.

B4: BMS2h-572-608 (other)
VH: EVQLLESGGGLVQPGGSLRLSCAASGFTFNWELMGWARQAPGKGLEWVSGIEGPGDVTYYADSVKGRFTISRDNSKNTLYLQMNSLRAEDTAVYYCVKVGKESNSDYRGQGTLVTVSS
For B4, the “hIZCD40L-driven Human B Cell Proliferation EC50” value in assay [1] came out at 96 nM. In assay [2], the “CHO-hCD40L-driven DC Activation IL-12 EC50” value came to 152 nM and the “T-B cell MLR EC50” value was more than 7000 nM.

B5: BMS2h-572-622 (other)
VH: EVQLLESGGGLVQPGGSLRLSCAASGFTFNWQLMGWVRQAPGKGLEWVSGIEGPGDVTYYADSVKGRFTISRDNSKNTLYLQMNSLRAEDTAVYYCVKVGKDSTSDYRGQGTLVTVSS
For B5, the “hIZCD40L-driven Human B Cell Proliferation EC50” value in assay [1] is 301 nM and 293 nM. In addition, in assay [2], the “CHO-hCD40L-driven DC Activation IL-12 EC50” value came out at 281 nM and the “T-B cell MLR EC50” value is more than 7000 nM.

B6: BMS2h-572-623 (other)
VH: EVQLLESGGGLVQPGGSLRLSCAASGFTFNWQLMGWVRQAPGKGLEWVSGIEGPGDVTYYADSVKGRFTISRDNSKNTLYLQMNSLRAEDTAVYYCVKVGKESSSDYRGQGTLVTVSS
For B6, the “hIZCD40L-driven Human B Cell Proliferation EC50” value in assay [1] was 181 nM and 261 nM. Besides, in assay [2], the “CHO-hCD40L-driven DC Activation IL-12 EC50” value came to 280 nM and the “T-B cell MLR EC50” value was more than 7000 nM.

B7: BMS2h-572-616 (other)
VH: EVQLLESGGGLVQPGGSLRLSCAASGFTFNWQLMGWVRQAPGKGLEWVSGIEGPGDVTYYADSVKGRFTISRDNSKNTLYLQMNSLRAEDTAVYYCVKVGKESKSDYRGQGTLVTVSS
As for B7, in assay [1], the “hIZCD40L-driven Human B Cell Proliferation EC50” value is 204 nM and 340 nM. Moreover, in assay [2], the “CHO-hCD40L-driven DC Activation IL-12 EC50” value was 608 nM and the “T-B cell MLR EC50” value was more than 7000 nM.

B8: BMS2h-572-617 (other)
VH: EVQLLESGGGLVQPGGSLRLSCAASGFTFNWQLMGWVRQAPGKGLEWVSGIEGPGDVTYYADSVKGRFTISRDNSKNTLYLQMNSLRAEDTAVYYCVKVGRDSKSDYRGQGTLVTVSS
B8: in assay [1], the “hIZCD40L-driven Human B Cell Proliferation EC50” value was 157 nM and 189 nM. Further, in assay [2], the “CHO-hCD40L-driven DC Activation IL-12 EC50” value was determined as 338 nM and the “T-B cell MLR EC50” value is more than 7000 nM.

B9: BMS2h-572-610 (other)
VH: EVQLLESGGGLVQPGGSLRLSCAASGFTFNWQLMGWVRQAPGKGLEWVSGIEGPGDVTYYADSVKGRFTISRDNSKNTLYLQMNSLRAEDTAVYYCVKVGKDSKSDYRGQGTLVTVSS
With B9, in assay [1], the “hIZCD40L-driven Human B Cell Proliferation EC50” value stood at 109 nM. For the same molecule, in assay [2], the “CHO-hCD40L-driven DC Activation IL-12 EC50” value was 207 nM and the “T-B cell MLR EC50” value is more than 7000 nM.

For the origin of these results see patent US20160075790A1 (Bristol-Myers Squibb, published 2016).
